Measurements as given in article PMC8787478.

Columns and labels:
Test in all cases: EMSA
Settings in all cases: EMSA: 10 mM Tris pH 7.5, 50 mM KCl, 1 mM EDTA, 1 mM DTT, 5% glycerol, 100 ug/mL BSA, 5 ug/mL poly(dI-dC), 0.25 nM probe, 25 C; footprinting: 10 mM Tris pH 8.0 …
[1] = molecular target: T1, His6-AlgR (Pseudomonas aeruginosa PAK) (UniProt P26275)
T1 sequence: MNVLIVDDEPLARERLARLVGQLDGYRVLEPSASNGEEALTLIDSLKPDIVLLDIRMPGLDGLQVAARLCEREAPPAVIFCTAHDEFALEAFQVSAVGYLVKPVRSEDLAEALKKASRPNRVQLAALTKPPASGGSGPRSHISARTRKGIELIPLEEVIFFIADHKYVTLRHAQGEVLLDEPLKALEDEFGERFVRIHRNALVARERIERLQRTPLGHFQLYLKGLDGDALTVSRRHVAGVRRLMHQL

[2] = molecular target: T2, Vfr (Pseudomonas aeruginosa) (UniProt P55222)
T2 sequence: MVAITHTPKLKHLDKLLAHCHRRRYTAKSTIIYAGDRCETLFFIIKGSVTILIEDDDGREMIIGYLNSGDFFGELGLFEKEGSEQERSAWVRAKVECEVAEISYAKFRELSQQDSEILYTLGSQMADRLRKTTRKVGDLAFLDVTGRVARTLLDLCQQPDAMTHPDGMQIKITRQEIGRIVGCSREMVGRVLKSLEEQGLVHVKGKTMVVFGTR

[3] = molecular target: T3, Vfr;His6-AlgR (Pseudomonas aeruginosa;Pseudomonas aeruginosa PAK) (UniProt P55222+P26275)
T3 sequence 1: T2 sequence
T3 sequence 2: T1 sequence

[4] = tested on: His6-AlgR (Pseudomonas aeruginosa PAK)

Row | Substance | binding [2] | further results
1 | GCATACCGTTGCCTGGCAACTGATCCTCAACCGGCAGGGCCGGCTCCGTACCGCGAGCGCCAGGGAGAACCGGGAGAAACGTGAGCTATGCAGCACTTCCGGATGATCATGGACCAGTTGTCCTGCCCCACGGGCCGACCGTCAACGACCGCAAGACGCTCCCAGGCCCGTTTGGCATGCTTTCCAGGCGTAGAC (double strand) [PfimU WT] | binds | binding [1]: binds; binding [3]: binds
2 | GTACGGGCGAAATAAAGCACCGAAATGCCATCTGCCGCAAAAAACCGCGAAACAGCGCTCGTTCCGGCTTCGTCGACGAGCCGCCGGTTTTTCCTCCCGGCCAGTAATCATCGTTGCCCTTTGCCCGTCACGCAGGCCGCGCG (double strand) [PalgZ VBS1 mutant] | binds more weakly | 
3 | GTACGGGCGAAATAAAGCACCGAAATGTCATCTGCCAAATCAAACCACAGAACAGCGATACTTCCGGCTTCGTCGACGAGCCGCCGGTTTTTCCTCCCGGCCAGTAATCATCGTTGCCCTTTGCCCGTCACGCAGGCCGCGCG (double strand) [PalgZ VBS1-2-3 mutant] | no binding | 
4 | GTACGGGCGAAATAAAGCACCGAAATGTCATCTGCCAAATCAAACCACAGAACAGCGATACTTCCGGCTTCGTCGACGAGCCGCCGGTTTTTCCTCCCGGCCTGCTATCATCGTCGCACTTTGCCCGTCACGCAGGCCGCGCG (double strand) [PalgZ VBS2-3 mutant] | binds more weakly | 
5 | GTACGGGCGAAATAAAGCACCGAAATGTCATCTGCCAAATCAAACCGCGAAACAGCGCTCGTTCCGGCTTCGTCGACGAGCCGCCGGTTTTTCCTCCCGGCCAGTAATCATCGTTGCCCTTTGCCCGTCACGCAGGCCGCGCG (double strand) [PalgZ VBS1-3 mutant (VBS1 and VBS3)] | binds more weakly | 
6 | GTACGGGCGAAATAAAGCACCGAAATGTCATCTGCCAAATCAAACCGCGAAACAGCGCTCGTTCCGGCTTCGTCGACGAGCCGCCGGTTTTTCCTCCCGGCCTGCTATCATCGTCGCACTTTGCCCGTCACGCAGGCCGCGCG (double strand) [PalgZ VBS3 mutant] | binds | 
7 | PfimU WT |  | K half [4]: > 351 nM
